Results: article PMC7550751, “Application of Force to a Syndecan-4 Containing Complex With Thy-1–αVβ3 Integrin Accelerates Neurite Retraction” (Frontiers in Molecular Biosciences, 2020)

Key:
[1] = biological target: T1, Recombinant αVβ3-Fc integrin (UniProt P06756 31-992; P05106 27-718); assay: zero force, optical tweezers
T1 chain 1: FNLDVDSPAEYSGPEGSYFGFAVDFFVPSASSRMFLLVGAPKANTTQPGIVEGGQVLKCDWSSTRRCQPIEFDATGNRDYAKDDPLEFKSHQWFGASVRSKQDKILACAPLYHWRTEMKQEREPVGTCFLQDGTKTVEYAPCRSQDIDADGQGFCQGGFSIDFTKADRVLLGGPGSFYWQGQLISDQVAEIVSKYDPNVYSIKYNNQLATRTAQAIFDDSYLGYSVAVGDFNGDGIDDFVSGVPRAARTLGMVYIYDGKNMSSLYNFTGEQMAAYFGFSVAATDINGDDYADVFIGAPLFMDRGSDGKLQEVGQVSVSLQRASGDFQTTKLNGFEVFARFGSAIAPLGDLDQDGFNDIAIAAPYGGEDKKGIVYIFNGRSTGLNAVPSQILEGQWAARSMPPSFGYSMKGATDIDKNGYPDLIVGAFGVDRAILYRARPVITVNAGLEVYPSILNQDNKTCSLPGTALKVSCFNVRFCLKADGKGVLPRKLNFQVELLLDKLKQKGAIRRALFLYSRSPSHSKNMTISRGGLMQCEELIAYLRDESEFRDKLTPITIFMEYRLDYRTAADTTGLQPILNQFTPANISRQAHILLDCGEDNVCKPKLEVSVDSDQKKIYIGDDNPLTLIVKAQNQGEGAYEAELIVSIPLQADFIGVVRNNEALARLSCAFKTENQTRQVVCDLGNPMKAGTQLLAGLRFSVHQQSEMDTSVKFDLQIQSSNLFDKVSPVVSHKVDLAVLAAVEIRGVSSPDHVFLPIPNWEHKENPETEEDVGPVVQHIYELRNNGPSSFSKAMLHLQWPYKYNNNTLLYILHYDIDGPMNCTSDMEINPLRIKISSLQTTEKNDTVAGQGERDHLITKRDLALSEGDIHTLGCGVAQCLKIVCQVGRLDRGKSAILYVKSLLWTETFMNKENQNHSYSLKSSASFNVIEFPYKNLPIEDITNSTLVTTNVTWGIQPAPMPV
T1 chain 2: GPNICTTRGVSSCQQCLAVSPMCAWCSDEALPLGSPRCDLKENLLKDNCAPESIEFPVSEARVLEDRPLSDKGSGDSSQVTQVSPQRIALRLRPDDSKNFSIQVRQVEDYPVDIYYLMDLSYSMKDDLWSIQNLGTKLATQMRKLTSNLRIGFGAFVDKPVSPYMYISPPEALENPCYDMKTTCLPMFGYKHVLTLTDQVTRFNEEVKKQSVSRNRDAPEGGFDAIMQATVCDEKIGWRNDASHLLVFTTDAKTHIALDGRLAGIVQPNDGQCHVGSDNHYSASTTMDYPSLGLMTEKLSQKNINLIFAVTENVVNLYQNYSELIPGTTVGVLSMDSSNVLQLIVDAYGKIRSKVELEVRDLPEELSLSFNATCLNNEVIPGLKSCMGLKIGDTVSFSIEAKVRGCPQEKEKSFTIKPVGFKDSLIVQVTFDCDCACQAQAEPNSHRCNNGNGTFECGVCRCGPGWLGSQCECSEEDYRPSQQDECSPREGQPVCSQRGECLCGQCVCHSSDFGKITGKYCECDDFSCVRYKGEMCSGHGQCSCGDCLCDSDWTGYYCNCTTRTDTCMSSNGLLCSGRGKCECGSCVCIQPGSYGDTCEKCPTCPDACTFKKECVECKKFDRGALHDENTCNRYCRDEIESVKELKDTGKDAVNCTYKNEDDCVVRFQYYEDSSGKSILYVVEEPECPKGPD

[2] = biological target: T2, Commercially purified human Syndecan (ectodomain)-4-Fc (human, UniProt P31431 19-145); assay: zero force, optical tweezers
T2 chain: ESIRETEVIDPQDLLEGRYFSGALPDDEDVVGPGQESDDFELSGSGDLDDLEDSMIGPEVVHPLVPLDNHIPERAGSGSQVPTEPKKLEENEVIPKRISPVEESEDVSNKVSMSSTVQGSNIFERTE

[3] = biological target: T3, αVβ3-Fc + Syndecan-4-Fc (both on one bead) ( | human, UniProt P06756 31-992; P05106 27-718; P31431 19-145); assay: zero force, optical tweezers, both αvβ3-Fc and Syndecan-4-Fc on the bead
T3 chain 1: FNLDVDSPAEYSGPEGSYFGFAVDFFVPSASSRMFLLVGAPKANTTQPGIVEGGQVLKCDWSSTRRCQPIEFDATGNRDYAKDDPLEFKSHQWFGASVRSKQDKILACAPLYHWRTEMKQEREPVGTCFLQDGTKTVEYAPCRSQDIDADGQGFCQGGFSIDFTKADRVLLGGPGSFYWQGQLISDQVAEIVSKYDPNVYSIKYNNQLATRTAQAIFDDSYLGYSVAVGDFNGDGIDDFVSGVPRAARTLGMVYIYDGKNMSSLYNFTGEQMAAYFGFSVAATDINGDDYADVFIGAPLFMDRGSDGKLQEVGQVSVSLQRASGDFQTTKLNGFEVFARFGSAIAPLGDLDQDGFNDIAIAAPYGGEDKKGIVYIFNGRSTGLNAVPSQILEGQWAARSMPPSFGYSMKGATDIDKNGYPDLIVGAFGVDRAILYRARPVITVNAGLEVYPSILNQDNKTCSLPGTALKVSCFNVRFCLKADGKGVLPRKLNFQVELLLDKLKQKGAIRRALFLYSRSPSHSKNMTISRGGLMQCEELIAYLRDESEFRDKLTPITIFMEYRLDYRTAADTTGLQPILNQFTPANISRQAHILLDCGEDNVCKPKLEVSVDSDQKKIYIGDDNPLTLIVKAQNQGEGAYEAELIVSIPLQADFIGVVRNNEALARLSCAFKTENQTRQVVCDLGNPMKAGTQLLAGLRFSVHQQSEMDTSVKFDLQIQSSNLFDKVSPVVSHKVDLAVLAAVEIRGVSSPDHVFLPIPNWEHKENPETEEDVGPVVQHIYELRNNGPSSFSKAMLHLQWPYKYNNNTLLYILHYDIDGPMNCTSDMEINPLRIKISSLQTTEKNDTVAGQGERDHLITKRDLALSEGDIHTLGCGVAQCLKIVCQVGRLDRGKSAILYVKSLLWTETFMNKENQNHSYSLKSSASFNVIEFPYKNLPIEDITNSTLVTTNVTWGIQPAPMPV
T3 chain 2: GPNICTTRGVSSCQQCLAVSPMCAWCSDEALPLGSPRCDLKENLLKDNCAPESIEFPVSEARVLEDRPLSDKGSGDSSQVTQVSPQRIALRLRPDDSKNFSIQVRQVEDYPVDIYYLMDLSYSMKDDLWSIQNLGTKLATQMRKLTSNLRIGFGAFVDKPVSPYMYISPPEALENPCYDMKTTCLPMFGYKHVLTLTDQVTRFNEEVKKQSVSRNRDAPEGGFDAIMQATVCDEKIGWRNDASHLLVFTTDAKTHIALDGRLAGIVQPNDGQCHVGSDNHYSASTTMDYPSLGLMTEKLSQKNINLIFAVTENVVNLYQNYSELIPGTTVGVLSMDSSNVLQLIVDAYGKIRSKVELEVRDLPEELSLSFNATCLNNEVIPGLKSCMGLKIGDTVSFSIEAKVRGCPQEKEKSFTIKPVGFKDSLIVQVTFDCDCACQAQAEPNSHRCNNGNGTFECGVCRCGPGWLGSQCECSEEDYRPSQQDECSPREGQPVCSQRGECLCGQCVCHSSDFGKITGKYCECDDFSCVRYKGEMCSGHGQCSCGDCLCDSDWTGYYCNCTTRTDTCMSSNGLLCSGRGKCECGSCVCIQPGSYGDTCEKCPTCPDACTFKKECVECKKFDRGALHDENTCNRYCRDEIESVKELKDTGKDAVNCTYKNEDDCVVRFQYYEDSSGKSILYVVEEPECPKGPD
T3 chain 3: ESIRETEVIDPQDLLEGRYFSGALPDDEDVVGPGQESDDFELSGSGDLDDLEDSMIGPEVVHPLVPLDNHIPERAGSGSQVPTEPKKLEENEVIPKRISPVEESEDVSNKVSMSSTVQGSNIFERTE

[4] = biological target: T1, Recombinant αVβ3-Fc integrin; assay: zero force, optical tweezers, with TRAIL-R2-Fc control on the bead
[5] = biological target: T2, Commercially purified human Syndecan …; assay: as above

- koff [1]: 0.14 s⁻¹
- koff [2]: 0.32 s⁻¹
- koff [3]: 0.08 s⁻¹
- koff [4]: 0.15 s⁻¹
- koff [5]: 0.28 s⁻¹
B1: Thy-1-Fc wild type (Fc fusion)
chain: QKVTSLTACLVNQNLRLDCRHENNTKDNSIQHEFSLTREKRKHVLSGTLGIPEHTYRSRVTLSNQPYIKVLTLANFTTKDEGDYFCELQVSGANPMSSNKSISVYRDKLVKC
